In patent US20160032013:

Experiments:
[1] = biological target: Recombinant human pro-MSP 689C (C672A, R689C, His tag), uncleaved single chain
[2] = biological target: Recombinant human pro-MSP 689R (C672A, His tag), uncleaved single chain
Recombinant human pro-MSP 689R (C672A, His tag), uncleaved single chain, sequence (chain, as listed by the source C672A): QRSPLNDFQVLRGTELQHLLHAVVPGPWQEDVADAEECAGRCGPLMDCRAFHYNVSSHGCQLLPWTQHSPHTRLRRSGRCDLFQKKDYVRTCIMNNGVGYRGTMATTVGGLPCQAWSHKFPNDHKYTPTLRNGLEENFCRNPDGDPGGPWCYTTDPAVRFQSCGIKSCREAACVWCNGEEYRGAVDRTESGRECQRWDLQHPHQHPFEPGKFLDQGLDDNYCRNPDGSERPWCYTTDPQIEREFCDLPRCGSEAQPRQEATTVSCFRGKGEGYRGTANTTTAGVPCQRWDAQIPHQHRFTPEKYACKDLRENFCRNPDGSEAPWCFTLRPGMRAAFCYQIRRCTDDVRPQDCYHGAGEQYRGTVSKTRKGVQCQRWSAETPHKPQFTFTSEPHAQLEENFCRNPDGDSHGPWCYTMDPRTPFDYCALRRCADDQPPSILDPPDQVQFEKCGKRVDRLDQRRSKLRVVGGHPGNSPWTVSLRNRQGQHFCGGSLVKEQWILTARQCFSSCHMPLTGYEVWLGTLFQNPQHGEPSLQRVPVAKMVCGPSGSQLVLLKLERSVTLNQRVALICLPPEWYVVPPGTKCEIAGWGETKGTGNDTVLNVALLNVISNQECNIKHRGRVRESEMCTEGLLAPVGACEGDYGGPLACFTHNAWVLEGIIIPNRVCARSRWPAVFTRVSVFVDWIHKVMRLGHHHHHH

Recombinant human pro-MSP 689C (C672A, R689C, His tag), uncleaved single chain, sequence (chain, as listed by the source C672A R689C): as the sequence (chain, as listed by the source C672A) above, with R671C counted along it

B1: sHepsin (extracellular domain of human recombinant hepsin with C-terminal His-tag) (protein)
chain: RSDQEPLYPVQVSSADARLMVFDKTEGTWRLLCSSRSNARVAGLSCEEMGFLRALTHSELDVRTAGANGTSGFFCVDEGRLPHTQRLLEVISVCDCPRGRFLAAICQDCGRRKLPVDDDDKIVGGRDTSLGRWPWQVSLRYDGAHLCGGSLLSGDWVLTAAHCFPERNRVLSRWRVFAGAVAQASPHGLQLGVQAVVYHGGYLPFRDPNSEENSNDIALVHLSSPLPLTEYIQPVCLPAAGQALVDGKICTVTGWGNTQYYGQQAGVLQEARVPIISNDVCNGADFYGNQIKPKMFCAGYPEGGIDACQGDSGGPFVCEDSISRTPRWRLCGIVSWGTGCALAQKPGVYTKVSDFREWIFQAIKTHSEASGMVTQLHHHHHHHH
[1]
  proteolytic cleavage of pro-MSP by hepsin, SDS-PAGE under reducing conditions, 1 h at 37 C: No obvious difference was observed in the concentration of hepsin required to completely cleave these variants over a 1-hour period
[2]
  proteolytic cleavage of pro-MSP by hepsin, SDS-PAGE under reducing conditions, 1 h at 37 C: No obvious difference was observed in the concentration of hepsin required to completely cleave these variants over a 1-hour period
